T1: TLR9 (Mus musculus, UniProt Q9EQU3 Q9EQU3:26-1032)
T1 sequence: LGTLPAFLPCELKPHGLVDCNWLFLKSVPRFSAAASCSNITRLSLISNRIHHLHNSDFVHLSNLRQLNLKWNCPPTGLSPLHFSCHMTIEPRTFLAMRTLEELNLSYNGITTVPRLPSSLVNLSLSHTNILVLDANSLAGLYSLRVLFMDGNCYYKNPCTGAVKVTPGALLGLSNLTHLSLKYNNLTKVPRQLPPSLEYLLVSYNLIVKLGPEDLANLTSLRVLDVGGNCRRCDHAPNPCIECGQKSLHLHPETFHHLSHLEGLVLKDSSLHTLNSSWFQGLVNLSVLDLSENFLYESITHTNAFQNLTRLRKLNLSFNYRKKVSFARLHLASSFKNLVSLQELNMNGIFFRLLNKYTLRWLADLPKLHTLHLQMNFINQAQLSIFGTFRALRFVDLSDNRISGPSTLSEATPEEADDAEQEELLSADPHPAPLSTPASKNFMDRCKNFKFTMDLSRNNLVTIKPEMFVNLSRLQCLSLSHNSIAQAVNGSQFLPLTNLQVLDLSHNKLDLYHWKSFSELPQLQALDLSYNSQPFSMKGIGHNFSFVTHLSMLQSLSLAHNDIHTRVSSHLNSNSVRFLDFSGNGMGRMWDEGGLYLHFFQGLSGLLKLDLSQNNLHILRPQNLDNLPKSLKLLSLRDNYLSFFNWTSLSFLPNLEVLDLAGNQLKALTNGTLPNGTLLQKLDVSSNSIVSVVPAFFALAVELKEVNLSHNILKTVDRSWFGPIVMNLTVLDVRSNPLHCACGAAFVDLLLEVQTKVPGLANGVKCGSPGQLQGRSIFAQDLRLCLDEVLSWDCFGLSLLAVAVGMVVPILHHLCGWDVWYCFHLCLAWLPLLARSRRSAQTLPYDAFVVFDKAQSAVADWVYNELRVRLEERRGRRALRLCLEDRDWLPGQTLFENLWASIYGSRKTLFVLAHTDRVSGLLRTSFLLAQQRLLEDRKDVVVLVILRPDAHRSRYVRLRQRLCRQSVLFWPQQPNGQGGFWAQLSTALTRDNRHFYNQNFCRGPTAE

B1: ApDC-A21B (ssDNA)
DNA: TCGAACGTTCGAACGACTCATTGATAGACAATGCGTTTCGAACGTTCGAAT
modifications: PS at all linkages of the CpG part
B2: ApDC-B21B (ssDNA)
DNA: TCGAACGTTCGAATACTCATTGATAGACAATGCGTTTCGAACGTTCGAAT
modifications: PS at all linkages of the CpG part
B3: PDL1-CpG30-PS (ssDNA)
DNA: CACATCAACTCATTGATAGACAATGCGTCCTCGAACGTTCGAACGTTCGAACGTTCGAAT
modifications: PS at all linkages of the CpG part
B4: ApDC-A21A (ssDNA)
DNA: TCGAACGTTCGAACGACTCATTGATAGACAATGCGTTCGAACGTTCGAACG
modifications: PS at all linkages of the CpG part
B5: PDL1-CpG29-9PS (ssDNA)
DNA: CACATCAACTCATTGATAGACAATGCGTCCTTCGAACGTTCGAACGTTCGAACGTTCGAA
modifications: PS at part of the linkages of the CpG part
B6: ApDC5-PS (ssDNA)
DNA: TCGAACGTTCGAACGTTCGAACGTTCGAATCACATCAACTCATTGATAGACAATGCGTCC
modifications: PS at all linkages of the CpG part
B7: ApDC5-7PS (ssDNA)
DNA: B6 DNA
modifications: PS at part of the linkages of the CpG part
B8: ApDC-A33B (ssDNA)
DNA: TTTCGAACGTTCGAACGCCACATCAACTCATTGATAGACAATGCGTCCACCGTTCGAACGTTCGATT
modifications: PS at part of the linkages of the CpG part
B9: CpG-L0-PS (ssDNA)
DNA: TCGAACGTTCGAACGTTCGAACGTTCGAAT
modifications: PS at all linkages

What was measured:
Details in all cases: tags: HEK-Blue mouse TLR9 reporter cells, InvivoGen
[1] = target: T1, TLR9; assay: cell_activity; SEAP reporter activation, 37 C; 1.3 nM in FIG. 5 experiment
Protocol: (§1) HEK-Blue cells expressing mouse TLR9 (InvivoGen) were cultured in a complete DMEM medium (Dulbecco's modified Eagle's medium), which was supplemented with 100 μg/ml Normocin, 30 μg/ml Blasticidin, and 100 μg/ml Zeocin (all InvivoGen). HEK-Blue cells contained a secreted alkaline phosphatase (SEAP) reporting system, which produces colorimetric changes after interacting with TLR9.
(§2) HEK-Blue Detection mixture (cell culture medium for SEAP detection, InvivoGen) is used to detect the presence of SEAP, which is produced by stimulation of a TLR9 ligand through NF-κB activation. Detection mixture contained nutrients for cell growth and color substrate, whose color will change when it is hydrolyzed by SEAP. When HEK 293 cells expressing mouse TLR9 (InvivoGen) reached 60-80% confluency, they were collected, centrifuged and resuspended in Detection mixture. Cells (72,000) were seeded in each well of a 96-well plate (180 μl). The cells were then treated in combination with 20 μl PBS (unstimulated; as a negative control group), “CpG-L0-PS” (as a positive control group) or nucleic acid-drug complex samples of varying concentrations in PBS in duplicate wells, and incubated for 24 hours at 37° C. in 5% CO₂. The plate was read spectrophotometrically by using a multimode plate reader (Tecan, Infinite™ M200 PRO, Männedorf, Switzerland) at a wavelength of 620 nm to 655 nm.

[2] = target: T1, TLR9; assay: cell_activity; SEAP reporter activation, 37 C
Protocol: as §1, §2
The experimental content is substantially the same as that of FIG. 4. The sample “CpG-L0-PS” in FIG. 5 corresponds to SEQ ID NO: 10 (which was not connected with anti-PD-L1 aptamer), and all phosphodiester bonds in the CpG oligonucleotide sequence were modified to phosphorothioate bonds.

[3] = target: T1, TLR9; assay: cell_activity; SEAP reporter activation, 37 C; remark: listed apart in the source
Protocol: as §1, §2

[4] = target: T1, TLR9; assay: cell_activity; SEAP reporter activation, 37 C; 5.5 nM in FIG. 5 experiment
Protocol: as §1, §2

[5] = target: T1, TLR9; assay: cell_activity; SEAP reporter activation, 37 C; 2.1 nM in FIG. 5 experiment
Protocol: as §1, §2

Binder | EC50 [2] [nM] | EC50 [3] [nM] | further results
B1 |  |  | EC50 [1]: 0.77 nM
B2 | 0.6 |  | 
B3 |  | 2.36 | 
B4 | 0.6 |  | 
B5 |  | 149 | 
B6 |  |  | EC50 [4]: 2.48 nM
B7 |  | 72.2 | 
B8 | 16400 |  | 
B9 |  |  | EC50 [5]: 2.09 nM

From patent US20210230600, “NUCLEIC ACID-DRUG COMPLEX AND USE THEREOF” (Industrial Technology Research Institute, published 2021)
